The test system of the data set is orthotopically implanted BxPC-3 tumors. The experiment in a line: NIR-fluorescence imaging, orthotopic BxPC-3 pancreatic adenocarcinoma in nude mice. The note with it: ex vivo NIR fluorescence, 24 h after 1.2 nmol i.v. The procedure:
Mice were injected with peptide-IRDye conjugate (~1 nmol) into the tail vein and imaged at various time points (0-72 h) using the IVIS Spectrum CT Imaging System (PerkinElmer) (see Supplemental Materials). For blocking experiments, mice were injected intravenously with unlabeled peptide 5a (128 nmol/mouse) 10 min before 5a-IRDye.
Figure 3 5a-IRDye homes in on orthotopically implanted BxPC-3 tumors. Nu/nu mice were orthotopically implanted with a Matrigel solution containing BxPC-3 cells or a Matrigel solution without cells (n=3-4 mice). After 18 days, mice were injected i.v. with 5a-IRDye (1.2 nmol), and NIR images were acquired after 24 h. A control mouse, which was not surgically manipulated, was injected with the vehicle and used as a reference for quantification of autofluorescence in the NIR region. (A) Representative fluorescence images of the exposed pancreas of control and tumor-bearing mice injected with or without 5a-IRDye as indicated. (B) Ex vivo fluorescence imaging and photographs of the removed pancreas. […]
Images were acquired with three-four mice simultaneously. […] For the quantification of the fluorescence uptake by the exposed pancreas the left kidney was surgically removed before imaging. Regions of interest (ROI) were drawn on the images, and the average (Avg) radiant efficiency was calculated using the Living Image 4.3.1 software (PerkinElmer). […]

Consider one compound from PMC9760430, “A stapled chromogranin A-derived peptide homes in on tumors that express αvβ6 or αvβ8 integrins” (International Journal of Biological Sciences, 2023).

Each structure is given as a SMILES string.

Regarding `CC[C@H](C)[C@H](NC(=O)[C@H](CCCNC(=N)N)NC(=O)[C@H](CC(C)C)NC(=O)[C@H](CC(=O)O)NC(=O)CNC(=O)[C@H](CCCNC(=N)N)NC(=O)[C@H](CC(C)C)NC(=O)[C@@H](NC(=O)[C@H](CCC(=O)O)NC(=O)[C@H](Cc1ccccc1)NC(=O)[C@@H](N)CSC1CC(=O)N(CCNC(=O)CCCCCN2C(=CC=C3CCCC(C=CC4=[N+](CCCCS(=O)(=O)[O-])c5ccc(S(=O)(=O)O)cc5C4(C)C)=C3Oc3ccc(S(=O)(=O)O)cc3)C(C)(C)c3cc(S(=O)(=O)O)ccc32)C1=O)[C@@H](C)O)C(=O)N[C@@H](CC(C)C)C(=O)N[C@@H](CO)C(=O)N[C@H](C(=O)N[C@@H](CC(C)C)C(=O)N[C@@H](CCCNC(=N)N)C(=O)N[C@H]1Cc2cn(nn2)CCCC[C@@H](C(=O)N[C@@H](CCCCN)C(=O)N[C@@H](CCC(=O)O)C(=O)N[C@@H](CC(C)C)C(=O)N[C@@H](CCC(N)=O)C(=O)N[C@@H](CC(=O)O)C(N)=O)NC(=O)[C@H](CC(C)C)NC(=O)[C@H](CC(N)=O)NC(=O)[C@H](CCC(N)=O)NC1=O)[C@@H](C)CC` (stereo partly shown) [5a-IRDye], the “accumulation in other explanted organs” value was “accumulated also in kidney, lung, and liver, and little or not at all in heart, brain, muscle, bone, spleen, intestine, and stomach”.
